17 variants from the supplement of paper PMC12855868 can be followed below.

B1: library; numbered along this chain (parent)
chain: MAAAGGARLLRAASAVLGGPAGRWLHHAGSRAGSSGLLRNRGPGGSAEASRSLSVSARARSSSEDKITVHFINRDGETLTTKGKVGDSLLDVVVENNLDIDGFGACEGTLACSTCHLIFEDHIYEKLDAITDEENDMLDLAYGLTDRSRLGCQICLTKSMDNMTVRVPETVADARQSIDVGKTS

This series covers variants of B1. In words: scaled log2 fold change in cell abundance, elesclomol vs control (0 = silent mean, 1 = nonsense mean) (scaled log2 ratio); higher = higher viability under elesclomol (loss of FDX1 cuproptosis function). The settings on record: glucose 10 mM.
Setting [1] is: with ABC1 FDX1 KO, elesclomol 5 nM, 14 days.
Where [2] appears, read: with HEK293T FDX1 KO, elesclomol 40 nM, 11 days.
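Also: variant abundance is its share of total variant reads in each endpoint sample, from next-generation sequencing of the integrated ORF PCR-amplified out of genomic DNA.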

In the case of MAAAGGARLLRAASAVLGGPAGRWLHHAGSRAGSSGLLRNRGPGGSAEASRSLSVSARARSSSEDKITVFFINRDGETLTTKGKVGDSLLDVVVENNLDIDGFGACEGTLACSTCHLIFEDHIYEKLDAITDEENDMLDLAYGLTDRSRLGCQICLTKSMDNMTVRVPETVADARQSIDVGKTS, the “scaled log2 fold change” value by setting is: under setting [1], 0.152; under setting [2], 0.385.

Take MAAAGGARLLRAASAVLGGPAGRWLHHAGSRAGSSGLLRNRGPGGSAEASRSLSVSARARSSSEDKITVNFINRDGETLTTKGKVGDSLLDVVVENNLDIDGFGACEGTLACSTCHLIFEDHIYEKLDAITDEENDMLDLAYGLTDRSRLGCQICLTKSMDNMTVRVPETVADARQSIDVGKTS: the “scaled log2 fold change” value reads like this: under setting [1], 0.0583; under setting [2], -0.00885.

With MAAAGGARLLRAASAVLGGPAGRWLHHAGSRAGSSGLLRNRGPGGSAEASRSLSVSARARSSSEDKITVEFINRDGETLTTKGKVGDSLLDVVVENNLDIDGFGACEGTLACSTCHLIFEDHIYEKLDAITDEENDMLDLAYGLTDRSRLGCQICLTKSMDNMTVRVPETVADARQSIDVGKTS, the “scaled log2 fold change” value under setting [1] was 0.148 and the “scaled log2 fold change” value under setting [2] came to 0.829.

With MAAAGGARLLRAASAVLGGPAGRWLHHAGSRAGSSGLLRNRGPGGSAEASRSLSVSARARSSSEDKITVQFINRDGETLTTKGKVGDSLLDVVVENNLDIDGFGACEGTLACSTCHLIFEDHIYEKLDAITDEENDMLDLAYGLTDRSRLGCQICLTKSMDNMTVRVPETVADARQSIDVGKTS, the “scaled log2 fold change” value is 0.0254 under setting [1] and -0.0243 under setting [2].

On to MAAAGGARLLRAASAVLGGPAGRWLHHAGSRAGSSGLLRNRGPGGSAEASRSLSVSARARSSSEDKITVGFINRDGETLTTKGKVGDSLLDVVVENNLDIDGFGACEGTLACSTCHLIFEDHIYEKLDAITDEENDMLDLAYGLTDRSRLGCQICLTKSMDNMTVRVPETVADARQSIDVGKTS, for which the “scaled log2 fold change” value was found to be 0.373 under setting [1] and 1.09 under setting [2].

As for MAAAGGARLLRAASAVLGGPAGRWLHHAGSRAGSSGLLRNRGPGGSAEASRSLSVSARARSSSEDKITVMFINRDGETLTTKGKVGDSLLDVVVENNLDIDGFGACEGTLACSTCHLIFEDHIYEKLDAITDEENDMLDLAYGLTDRSRLGCQICLTKSMDNMTVRVPETVADARQSIDVGKTS, the “scaled log2 fold change” value runs as follows: under setting [1], -0.0655; under setting [2], 0.0916.

MAAAGGARLLRAASAVLGGPAGRWLHHAGSRAGSSGLLRNRGPGGSAEASRSLSVSARARSSSEDKITVDFINRDGETLTTKGKVGDSLLDVVVENNLDIDGFGACEGTLACSTCHLIFEDHIYEKLDAITDEENDMLDLAYGLTDRSRLGCQICLTKSMDNMTVRVPETVADARQSIDVGKTS: the “scaled log2 fold change” value turned out to be 0.33 under setting [1] and 1.31 under setting [2].

With MAAAGGARLLRAASAVLGGPAGRWLHHAGSRAGSSGLLRNRGPGGSAEASRSLSVSARARSSSEDKITVKFINRDGETLTTKGKVGDSLLDVVVENNLDIDGFGACEGTLACSTCHLIFEDHIYEKLDAITDEENDMLDLAYGLTDRSRLGCQICLTKSMDNMTVRVPETVADARQSIDVGKTS, the “scaled log2 fold change” value runs as follows: under setting [1], -0.215; under setting [2], 0.573.

Turning to MAAAGGARLLRAASAVLGGPAGRWLHHAGSRAGSSGLLRNRGPGGSAEASRSLSVSARARSSSEDKITVPFINRDGETLTTKGKVGDSLLDVVVENNLDIDGFGACEGTLACSTCHLIFEDHIYEKLDAITDEENDMLDLAYGLTDRSRLGCQICLTKSMDNMTVRVPETVADARQSIDVGKTS, the “scaled log2 fold change” value runs as follows: under setting [1], 0.933; under setting [2], 0.983.

For the variant MAAAGGARLLRAASAVLGGPAGRWLHHAGSRAGSSGLLRNRGPGGSAEASRSLSVSARARSSSEDKITVLFINRDGETLTTKGKVGDSLLDVVVENNLDIDGFGACEGTLACSTCHLIFEDHIYEKLDAITDEENDMLDLAYGLTDRSRLGCQICLTKSMDNMTVRVPETVADARQSIDVGKTS, the “scaled log2 fold change” value reads like this: under setting [1], -0.219; under setting [2], -0.612.

MAAAGGARLLRAASAVLGGPAGRWLHHAGSRAGSSGLLRNRGPGGSAEASRSLSVSARARSSSEDKITVAFINRDGETLTTKGKVGDSLLDVVVENNLDIDGFGACEGTLACSTCHLIFEDHIYEKLDAITDEENDMLDLAYGLTDRSRLGCQICLTKSMDNMTVRVPETVADARQSIDVGKTS: the “scaled log2 fold change” value under setting [1] turned out to be 0.42 and the “scaled log2 fold change” value under setting [2] was -0.104.

With MAAAGGARLLRAASAVLGGPAGRWLHHAGSRAGSSGLLRNRGPGGSAEASRSLSVSARARSSSEDKITVIFINRDGETLTTKGKVGDSLLDVVVENNLDIDGFGACEGTLACSTCHLIFEDHIYEKLDAITDEENDMLDLAYGLTDRSRLGCQICLTKSMDNMTVRVPETVADARQSIDVGKTS, the “scaled log2 fold change” value was 0.093 under setting [1] and -0.0895 under setting [2].

Turning to MAAAGGARLLRAASAVLGGPAGRWLHHAGSRAGSSGLLRNRGPGGSAEASRSLSVSARARSSSEDKITVCFINRDGETLTTKGKVGDSLLDVVVENNLDIDGFGACEGTLACSTCHLIFEDHIYEKLDAITDEENDMLDLAYGLTDRSRLGCQICLTKSMDNMTVRVPETVADARQSIDVGKTS, the “scaled log2 fold change” value under setting [1] came out at 0.396.

In the case of MAAAGGARLLRAASAVLGGPAGRWLHHAGSRAGSSGLLRNRGPGGSAEASRSLSVSARARSSSEDKITWHFINRDGETLTTKGKVGDSLLDVVVENNLDIDGFGACEGTLACSTCHLIFEDHIYEKLDAITDEENDMLDLAYGLTDRSRLGCQICLTKSMDNMTVRVPETVADARQSIDVGKTS, the “scaled log2 fold change” value under setting [1] was found to be 0.674 and the “scaled log2 fold change” value under setting [2] was 0.931.

With MAAAGGARLLRAASAVLGGPAGRWLHHAGSRAGSSGLLRNRGPGGSAEASRSLSVSARARSSSEDKITTHFINRDGETLTTKGKVGDSLLDVVVENNLDIDGFGACEGTLACSTCHLIFEDHIYEKLDAITDEENDMLDLAYGLTDRSRLGCQICLTKSMDNMTVRVPETVADARQSIDVGKTS, the “scaled log2 fold change” value reads like this: under setting [1], 0.119; under setting [2], 0.953.

MAAAGGARLLRAASAVLGGPAGRWLHHAGSRAGSSGLLRNRGPGGSAEASRSLSVSARARSSSEDKITSHFINRDGETLTTKGKVGDSLLDVVVENNLDIDGFGACEGTLACSTCHLIFEDHIYEKLDAITDEENDMLDLAYGLTDRSRLGCQICLTKSMDNMTVRVPETVADARQSIDVGKTS: the “scaled log2 fold change” value amounted to 0.684 under setting [1] and 0.329 under setting [2].

Consider MAAAGGARLLRAASAVLGGPAGRWLHHAGSRAGSSGLLRNRGPGGSAEASRSLSVSARARSSSEDKITYHFINRDGETLTTKGKVGDSLLDVVVENNLDIDGFGACEGTLACSTCHLIFEDHIYEKLDAITDEENDMLDLAYGLTDRSRLGCQICLTKSMDNMTVRVPETVADARQSIDVGKTS, for which the “scaled log2 fold change” value runs as follows: under setting [1], 1.05; under setting [2], 1.86.
